Series [1] has as its target Abi-P2 of E. coli prophage EC30 (residues 1–541) (E. coli prophage EC30 (Enterobacteria phage P2-EC30)). Put plainly: crystal structure; Abi-P2 (1–541) 6 mg/ml, sitting drop at 18°C and 4°C; space group P2(1); 3.1 Å.
Series [2] shares this target. Nature of the series: cryo-EM structure; Abi-P2 1 mg/ml in 20 mM Tris pH 7.0, 500 mM NaCl, 1 mM DTT; tilted dataset, C3 symmetry, 3.9 Å low-quality reconstruction, not deposited.
Series [3] has the same target. Nature of the series: SEC-MALS; Superdex 200 Increase 10/300 GL, 100 μl samples, 25 mM Tris pH 7.0, 400 mM NaCl, 2% glycerol, 1 mM DTT. In general terms: SEC sorts molecules by how far they enter the pores of the column.
Series [4] concerns the molecule itself. Put plainly: cryo-EM structure; Ll-AbiK 1.0 mg/ml on Quantifoil R1.2/1.3 grid, single-particle reconstruction with D3 symmetry, 2.3 Å.
Series [5] deals with the molecule itself. Put plainly: cryo-EM structure; Ll-AbiK Y44F 1.74 mg/ml on C-flat-2/1 grid, 2D classification; only hexamer classes used for the reconstruction (D3 symmetry, 2.7 Å).

“And” between values parts separate entries of the source, which are not always exact repeats. Equal values may be shown once.

One may read the stoichiometry N as the number of molecules, sites or subunits per partner or assembly. Turning to “Abi-P2 of E. coli prophage EC30 (residues 1–541) (enzyme)”, the stoichiometry N in series [1], in series [2] and in series [3] was 3 each time.

B1: Lactococcus lactis AbiK, wild type (Ll-AbiK–DNA adduct) (enzyme)
chain: MKKEFTELYDFIFDPIFLVRYGYYDRSIKNKKMNTAKVELDNEYGKSDSFYFKVFNMESFADYLRSHDLKTHFNGKKPLSTDPVYFNIPKNIEARRQYKMPNLYSYMALNYYICDNKKEFIEVFIDNKFSTSKFFNQLNFDYPKTQEITQTLLYGGIKKLHLDLSNFYHTLYTHSIPWMIDGKSASKQNRKKGFSNTLDTLITACQYDETHGIPTGNLLSRIITELYMCHFDKQMEYKKFVYSRYVDDFIFPFTFENEKQEFLNEFNLICRENNLIINDNKTKVDNFPFVDKSSKSDIFSFFENITSTNSNDKWIKEISNFIDYCVNEEHLGNKGAIKCIFPVITNTLKQKKVDTKNIDNIFSKRNMVTNFNVFEKILDLSLKDSRLTNKFLTFFENINEFGFSSLSASNIVKKYFSNNSKGLKEKIDHYRKNNFNQELYQILLYMVVFEIDDLLNQEELLNLIDLNIDDYSLILGTILYLKNSSYKLEKLLKKIDQLFINTHANYDVKTSRMAEKLWLFRYFFYFLNCKNIFSQKEINSYCQSQNYNSGQNGYQTELNWNYIKGQGKDLRANNFFNELIVKEVWLISCGENEDFKYLN
modifications: DNA (9–17 nt by mass spectrometry) covalently attached by its 5′ end to the hydroxyl group of Tyr44
notes: AbiK of Lactococcus lactis, encoded on plasmid pSRQ800; synthetic gene; theoretical MW of the monomer 71.5 kDa; it says that the whole length of the polypeptide chain is visible in the model except residues 189–190; The short DNA was synthesised in the bacterial cell and co-purified; source: E. coli BL21 Star (DE3), purified (HisTrap, SUMO protease, HisTrap flow-through, Superdex 200); not shown: …
Turning to B1, in series [4], the “stoichiometry N” value came out at 6.

B2: Ll-AbiK Y44F (enzyme, Lactococcus lactis)
chain: MKKEFTELYDFIFDPIFLVRYGYYDRSIKNKKMNTAKVELDNEFGKSDSFYFKVFNMESFADYLRSHDLKTHFNGKKPLSTDPVYFNIPKNIEARRQYKMPNLYSYMALNYYICDNKKEFIEVFIDNKFSTSKFFNQLNFDYPKTQEITQTLLYGGIKKLHLDLSNFYHTLYTHSIPWMIDGKSASKQNRKKGFSNTLDTLITACQYDETHGIPTGNLLSRIITELYMCHFDKQMEYKKFVYSRYVDDFIFPFTFENEKQEFLNEFNLICRENNLIINDNKTKVDNFPFVDKSSKSDIFSFFENITSTNSNDKWIKEISNFIDYCVNEEHLGNKGAIKCIFPVITNTLKQKKVDTKNIDNIFSKRNMVTNFNVFEKILDLSLKDSRLTNKFLTFFENINEFGFSSLSASNIVKKYFSNNSKGLKEKIDHYRKNNFNQELYQILLYMVVFEIDDLLNQEELLNLIDLNIDDYSLILGTILYLKNSSYKLEKLLKKIDQLFINTHANYDVKTSRMAEKLWLFRYFFYFLNCKNIFSQKEINSYCQSQNYNSGQNGYQTELNWNYIKGQGKDLRANNFFNELIVKEVWLISCGENEDFKYLN
notes: AbiK of Lactococcus lactis with the protein-priming tyrosine 44 replaced by phenylalanine; Unable to carry out protein-primed DNA synthesis, so it carries no DNA; Purification of the variants is described only in general terms with the wild type; also called Y44F variant; source: E. coli BL21 Star (DE3), purified; not shown: His6-SUMO, N-terminal, cleaved
Regarding B2, in series [5], the “stoichiometry N” value was 3 and 6.

For the origin of these results see paper PMC9508834, “Mechanism of protein-primed template-independent DNA synthesis by Abi polymerases” (Nucleic Acids Research, 2022).
